Experimental data taken from patent US20200216495A1 (ADRX, published 2020).
Values joined by “and” are separate entries in the source; they are usually repeats but may differ in a detail not shown here. Equal values may be shown once. Square brackets hold non-standard residues; d marks the D form. Ends that are not written are not given here.

biological target: Tau40 P301L protein (human); assay: cell-based or functional assay

IC50, Tau40 assay (ThT) | Binder
820 nM | [dH][dR][dL][dK][dV][dR][dW][dH] [hrlkvrwh (PEPTIDE ID NO: 213)]
830 nM | [dF][dK][dL][dK][dL][dR][dW][dF] [fklklrwf (PEPTIDE ID NO: 57)]
830 nM | [dL][dK][dF][dR][dI][dH][dY] [lkfrihy (PEPTIDE ID NO: 216)]
820 nM | [dL][dK][dI][dR][dI][dF][dY][dH] [lkirifyh (PEPTIDE ID NO: 214)]
840 nM | [dW][dR][dL][dK][dV][dR][dW][dF] [wrlkvrwf (PEPTIDE ID NO: 218)]
880 nM | [dR][dR][dL][dK][dV][dR][dW][dW] [rrlkvrww (PEPTIDE ID NO: 225)]
940 nM | [dW][dW][dL][dR][dI][dH][dW] [wwlrihw (PEPTIDE ID NO: 425)]
880 nM | [dW][dR][dF][dK][dV][dR][dW] [wrfkvrw (PEPTIDE ID NO: 226)]
860 nM | [dW][dR][dL][dK][dV][dR][dW][dH] [wrlkvrwh (PEPTIDE ID NO: 222)]
850 nM | [dW][dR][dR][dK][dV][dR][dW][dW] [wrrkvrww (PEPTIDE ID NO: 220)]
830 nM | [dR][dW][dR][dL][dK][dV][dR][dW] [rwrlkvrw (PEPTIDE ID NO: 217)]
940 nM | [dW][dK][dL][dK][dL][dW][dW][dW] [wklklwww (PEPTIDE ID NO: 14)]
860 nM | [dL][dK][dI][dL][dI][dH][dY][dH] [lkilihyh (PEPTIDE ID NO: 223)]
910 nM | [dF][dK][dI][dR][dI][dH][dY][dF] [fkirihyf (PEPTIDE ID NO: 232)]
810 nM | [dL][dK][dI][dR][dF][dH][dY] [lkirfhy (PEPTIDE ID NO: 211)]
910 nM | [dF][dR][dL][dK][dV][dR][dW][dW] [frlkvrww (PEPTIDE ID NO: 231)]
910 nM | [dW][dR][dL][dK][dV][dR][dW][dR] [wrlkvrwr (PEPTIDE ID NO: 230)]
540 nM | [dW][dR][dL][dR][dI][dM][dW] [wrlrimw (PEPTIDE ID NO: 452)]
840 nM | [dL][dK][dI][dR][dI][dM][dY] [lkirimy (PEPTIDE ID NO: 219)]
940 nM | [dT][dL][dK][dI][dR][dI][dH][dY] [tlkirihy (PEPTIDE ID NO: 235)]
2690 nM | [dR][dL][dR][dI][dH][dW][dF] [rlrihwf (PEPTIDE ID NO: 446)]
2670 nM | [dW][dK][dL][dW][dL][dR][dW][dW] [wklwlrww (PEPTIDE ID NO: 12)]

IC50, Tau40 assay (ThT) | Binder
970 nM | [dL][dR][dI][dK][dI][dR][dF][dH] [lrikirfh (PEPTIDE ID NO: 421)]
930 nM | [dL][dK][dI][dK][dI][dH][dY] [lkikihy (PEPTIDE ID NO: 233)]
810 nM | [dL][dK][dI][dW][dI][dK][dY][dH] [lkiwikyh (PEPTIDE ID NO: 212)]
970 nM | [dL][dR][dI][dR][dL][dH][dY][dH] [lrirlhyh (PEPTIDE ID NO: 420)]
310 nM and 320 nM | [dW][dR][dL][dR][dI][dH][dW] [wrlrihw (PEPTIDE ID NO: 101)]
810 nM | [dL][dR][dL][dK][dV][dR][dW][dL] [lrlkvrwl (PEPTIDE ID NO: 210)]
2650 nM | [dW][dR][dL][dA][dI][dH][dW] [wrlaihw (PEPTIDE ID NO: 325)]
920 nM | [dK][dL][dK][dL][dR][dW][dW] [klklrww (PEPTIDE ID NO: 448)]
790 nM | G[dW][dR][dL][dK][dV][dR][dW] (also: all residues D-form, Gly1 is achiral) [gwrlkvrw (PEPTIDE ID NO: 209)]
900 nM | [dL][dK][dI][dR][dI][dR][dF][dH] [lkirirfh (PEPTIDE ID NO: 414)]
930 nM | [dW][dW][dR][dL][dK][dV][dR][dW] [wwrlkvrw (PEPTIDE ID NO: 234)]
870 nM | [dR][dL][dK][dV][dR][dW][dW][dW] [rlkvrwww (PEPTIDE ID NO: 224)]
850 nM | [dL][dR][dL][dK][dV][dR][dW][dW] [lrlkvrww (PEPTIDE ID NO: 221)]
820 nM | [dW][dR][dF][dK][dF][dR][dW] [wrfkfrw (PEPTIDE ID NO: 215)]
890 nM | [dR][dK][dI][dR][dI][dH][dY][dH] [rkirihyh (PEPTIDE ID NO: 227)]
900 nM | [dE][dW][dR][dL][dK][dV][dR][dW] [ewrlkvrw (PEPTIDE ID NO: 229)]
960 nM | G[dL][dK][dI][dR][dI][dH][dY] [glkirihy (PEPTIDE ID NO: 236)]
2690 nM | [dH][dW][dR][dW][dR][dW][dR] [hwrwrwr (PEPTIDE ID NO: 326)]
930 nM and 980 nM | [dL][dQ][dF][dD][dL][dQ][dY][dF] [lqfdlqyf (PEPTIDE ID NO: 142)]
970 nM | [dL][dK][dI][dW][dI][dY][dY][dH] [lkiwiyyh (PEPTIDE ID NO: 237)]
510 nM | [dR][dL][dK][dI][dR][dI][dH][dY] [rlkirihy (PEPTIDE ID NO: 451)]
